Like-named read-outs stand apart in the source and are kept apart here. Each block holds one binder with its values, some of them ahead of it.
Experiments:
[1] = target: T1, HLA-Cw*0102 on TAP deficient 721.174 cells (human (endogenous in 721.174)); assay: FACS
[2] = target: T1, HLA-Cw*0102 on TAP deficient 721.174 …; assay: FACS; remark: listed apart in the source

B3: VAPWNSLSL (peptide)
chain: VAPWNSLSL
Kd [2]: 180 nM

B4: VAPWNSRAL peptide (peptide)
peptide: VAPWNSRAL
Kd [1]: 190 nM

Second part, the binder after the results:

Kd [1]: 140 nM
B1: VAPWNSDAL peptide (peptide)
peptide: VAPWNSDAL

Kd [1]: 140 nM
B2: VAPWNSFAL peptide (peptide)
peptide: VAPWNSFAL

— PMC4324016 (2014)
